Laboratory results reported in paper PMC10552185, “Impaired cAMP processivity by phosphodiesterase-protein kinase A complexes in acrodysostosis” (Frontiers in Molecular Biosciences, 2023).

Target: T1, cAMP-dependent protein kinase (PKA) type I regulatory subunit isoform α, full-length wild type (UniProt P00514 1-380)
T1 construct: PKA type I regulatory subunit α (RIα), full length, UniProtKB P00514 used for the HDXMS peptide search; Cloned in pRSETA; for FP loaded with 8-fl-cAMP or 2'-fl-cAMP; also called RIα; WT RIα
T1 sequence (P00514 whole entry, canonical isoform): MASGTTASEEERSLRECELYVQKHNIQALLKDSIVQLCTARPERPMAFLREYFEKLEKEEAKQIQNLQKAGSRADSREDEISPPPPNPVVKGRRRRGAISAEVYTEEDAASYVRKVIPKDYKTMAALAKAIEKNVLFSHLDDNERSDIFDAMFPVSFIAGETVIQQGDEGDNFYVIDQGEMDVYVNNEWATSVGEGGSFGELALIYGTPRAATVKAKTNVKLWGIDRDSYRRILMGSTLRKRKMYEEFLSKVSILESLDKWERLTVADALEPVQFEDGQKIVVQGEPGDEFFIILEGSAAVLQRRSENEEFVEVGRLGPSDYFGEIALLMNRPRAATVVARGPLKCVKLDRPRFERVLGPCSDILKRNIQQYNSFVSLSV
Assay: fluorescence polarisation; about 1 uM RIα preloaded with 8-fl-cAMP or 2'-fl-cAMP (excess ligand removed by SEC), about 2 uM PDE8 added; polarisation followed over 120 min; 96-well plates; excess cAMP (25 or 100 uM) added at 20 min in some runs
Details: both partners purified

Row | binding result | Binder
1 | binds | catalytic domain of wild-type PDE8A1 (472-829) (domain or fragment, UniProt O60658-1 472-829, looked up, PDE8A catalytic domain, residues 472-829 of PDE8A1, UniProtKB O60658 used for the HDXMS peptide search; Cloned in pET-Duet1; also called PDE8 WT; WT PDE8) SSNIITPISLDDVPPRIARAMENEEYWDFDIFELEAATHNRPLIYLGLKMFARFGICEFLHCSESTLRSWLQIIEANYHSSNPYHNSTHSADVLHATAYFLSKERIKETLDPIDEVAALIAATIHDVDHPGRTNSFLCNAGSELAILYNDTAVLESHHAALAFQLTTGDDKCNIFKNMERNDYRTLRQGIIDMVLATEMTKHFEHVNKFVNSINKPLATLEENGETDKNQEVINTMLRTPENRTLIKRMLIKCADVSNPCRPLQYCIEWAARISEEYFSQTDEEKQQGLPVVMPVFDRNTCSIPKSQISFIDYFITDMFDAWDAFVDLPDLMQHLDNNFKYWKGLDEMKLRNLRPPPE
2 | binds | PDE8A catalytic domain (472-829) T690P (domain or fragment, UniProt O60658 472-829, looked up, PDE8A catalytic domain, residues 472-829 of PDE8A1, UniProtKB O60658, with T690P (made as the equivalent of the acrodysostosis mutation PDE4D T594P); Cloned in pET-Duet1; also called PDE8 T690P; PDE8c T690P) SSNIITPISLDDVPPRIARAMENEEYWDFDIFELEAATHNRPLIYLGLKMFARFGICEFLHCSESTLRSWLQIIEANYHSSNPYHNSTHSADVLHATAYFLSKERIKETLDPIDEVAALIAATIHDVDHPGRTNSFLCNAGSELAILYNDTAVLESHHAALAFQLTTGDDKCNIFKNMERNDYRTLRQGIIDMVLATEMTKHFEHVNKFVNSINKPLAPLEENGETDKNQEVINTMLRTPENRTLIKRMLIKCADVSNPCRPLQYCIEWAARISEEYFSQTDEEKQQGLPVVMPVFDRNTCSIPKSQISFIDYFITDMFDAWDAFVDLPDLMQHLDNNFKYWKGLDEMKLRNLRPPPE
